The text below walks through data of the nanobody polyreactivity screen of Harvey et al. (2022).

This series is described as follows: yeast display, Sf9 membrane polyspecificity reagent, FACS + sequencing; frameworks hold sequencing errors. Put shortly: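 Nanobodies came from a synthetic yeast display library in Saccharomyces cerevisiae BJ5465, induced with galactose for 36–48 hours and stained for 1 hour at 4 °C with 10% biotinylated, detergent-solubilized Sf9 membrane reagent. Cells were enriched on streptavidin microbeads and then FACS-sorted, with low and high (top ~1%) gates set on anti-HA fluorescence for expression and streptavidin fluorescence for reagent binding. Each polyreactivity label reflects the gate a clone came from. Genes were amplified by colony PCR, sequenced by MiSeq 2 × 250 and filtered by CDR length.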
“QVQLVESGGGLVQAGGSLRLSCAASGYIFDYYAMGWYRQAPWKERELVAAISSSGGTTYYADSVKGRFTISRDNAKNTVYLQMNSLKPEDTAVYYCAARKSRWQRGYYYWGQGTQVTVSS”: the “polyreactivity (PSR sort gate)” value is on record as “high polyreactivity”.

On to “QVQLVESGGGLVQAGGSLRLSCAASGYIFFGNAMGWYRQAPGKERELVAAIRWRGTSTYYADSVKGRFTISRDNAKNTVYLQMNSLKPEDTAVYYCAADVVRYNFYGTFLYDYDYWGQGTQVTVSS”, for which the “polyreactivity (PSR sort gate)” value was “low polyreactivity”.

Take “QVQLVESGGGLVQAGGSLRLSCAASGYIFGSYVMGWYRQAPGKERELVAAITRIGASTYYADSVKGRFTISRDNAKNNVYLQMNSLKPEDTAVYYCATDQGGYYENDYWGQGNQVTVSS”: the “polyreactivity (PSR sort gate)” value was “low polyreactivity”.

Take “QVQLVESGGGLVQAGGSLRLSCAASGYIFGVYAMGWYRQAPGKERELVAAISYGVGSTSYADSVKGRFTISRDNAKNTVYLQMNSLKPEDTAVYYCAADVFFYVYEAYLLYYWGQGTQVTVSS”: the “polyreactivity (PSR sort gate)” value was “low polyreactivity”.

With “QVQLVESGGGLVQAGGSLRLSCAASGYIFGVYVMGSYRQAPGKERELVAAITRGGGNTYYADSVKGRFTISRDNAKNSVYLQMNSLKPEDTAVYYCAARSLKSLSRYYYWGQGTQVTVSS”, the “polyreactivity (PSR sort gate)” value is “high polyreactivity”.

For “QVQLVESGGGLVQAGGSLRLSCAASGYIFGWNAMGWYRQAPGKERELVASIRWGGGSTYYADSVKGRFTISRDNAKNTVYLQMNSLKPEDTAVYYCAAKRRYYGPWSRIGYDYWGQGTQVTVSS”, the “polyreactivity (PSR sort gate)” value is recorded as “low polyreactivity”.

“QVQLVESGGGLVQAGGSLRLSCAASGYIFGWYAMGWYRQAPGKERELLATIDWSGDSTYYADSVKGRFTISRDNAKNTVYLQMNSLKPEDTAVYYCAVGYVVDTWDEYDYWGQGTQVTVSS”: the “polyreactivity (PSR sort gate)” value is given as “low polyreactivity”.

Consider “QVQLVESGGGLVQAGGSLRLSCAASGYIFGYYAMGWYRQAPGKERELVAAISTDGSTDYADSVKGRFTISRDNAKKTVYLQMNSLKPEDTAVYYCAKELFIVTNGVYIYDSWGQGTQVTVSS”, for which the “polyreactivity (PSR sort gate)” value was “low polyreactivity”.

In the case of “QVQLVESGGGLVQAGGSLRLSCAASGYIFGYYVMGWYRQAPGKERELVAAISDSDITYYADSVKGRFTISRDNAKNTVYLQMNSLKPEDTAVYYCNKDHSLYEHNYWGQGTLVTVSS”, the “polyreactivity (PSR sort gate)” value is recorded as “low polyreactivity”.

In the case of “QVQLVESGGGLVQAGGSLRLSCAASGYIFGYYVMGWYRQAPGKERELVAAITGRGGSTYYADSVKGRFTISRDNAKNTVYLQMNSLKPEDTAVYYCAADATTYPYDPWHLYEIWEYYYWGQGTQVTVSS”, the “polyreactivity (PSR sort gate)” value is given as “low polyreactivity”.

In the case of “QVQLVESGGGLVQAGGSLRLSCAASGYIFHYNTMGWYRQAPGKERELVAAITWSGGNTYYADSVKGRFTISRDNAKNTVYLQMNSLKPEDTAVYYFAKLNYSPEATRSNYWGQGTQVTVSS”, the “polyreactivity (PSR sort gate)” value is on record as “low polyreactivity”.

With “QVQLVESGGGLVQAGGSLRLSCAASGYIFILYAKGWYRQATGKERQLVATISSNAVSTYYADSVKGRFTISRDNAKITVYLQMNSLKPEDTAVYYCNVEYTPNTVSGYDYWGQGTQVTVSS”, the “polyreactivity (PSR sort gate)” value is recorded as “low polyreactivity”.

Regarding “QVQLVESGGGLVQAGGSLRLSCAASGYIFIRNAMGWYRQAPGKERELVAAISWTGGSTYYADSVKGRFTISRDNAKNTVYLQMNSLKPEDTAVYYCNKYYRAWLLWDYGYWGQGTQVTVSS”, the “polyreactivity (PSR sort gate)” value is “high polyreactivity”.

In the case of “QVQLVESGGGLVQAGGSLRLSCAASGYIFIWYDMGGYRQAPGKERELVAAISGSGGSTYYADSVKGRFTISRDNAKNTVYLQMNSLKPEDTAVYYCAAVPAHFYGYDYWGQGTQVTVSS”, the “polyreactivity (PSR sort gate)” value was “low polyreactivity”.

With “QVQLVESGGGLVQAGGSLRLSCAASGYIFKYNAMGWYRQAPGKERELVATIRGGGSTNYADSVKGRFTISRDNAKNTVYLQMNSLKPEDTAVYYCAAVQRYEYGYWGQGTQVTVSS”, the “polyreactivity (PSR sort gate)” value is “high polyreactivity”.

“QVQLVESGGGLVQAGGSLRLSCAASGYIFLFYGMGWYRPAPGKERELVAAITYGGGSTYYADSVKGRFTISRDNAKNTVYLQMNSLKPEDTAVYYCNAPSRLSTIFYSGYDYWGQGTQVTVSS”: the “polyreactivity (PSR sort gate)” value is “low polyreactivity”.

Regarding “QVQLVESGGGLVQAGGSLRLSCAASGYIFLNYAMGWYRQAPGKEREFVATITSSGGTTYYADSVKGRFTISRDNAKNTVYLQMNSLKPEDTAVYYCNADAGWYDWVYYVGRDYWGQGTQVTVSS”, the “polyreactivity (PSR sort gate)” value is recorded as “low polyreactivity”.

Take “QVQLVESGGGLVQAGGSLRLSCAASGYIFLRNAMAWYTKAPGKERELVAAIRRTGGSTYYADSVKGRFTISRDNAKNTVYLQMNSLKPEDTAVYYCAKRSYTGYEYWGQGTQVTVSS”: the “polyreactivity (PSR sort gate)” value is “low polyreactivity”.

“QVQLVESGGGLVQAGGSLRLSCAASGYIFLRNAMGWSRQAPGKERELVAAIRRTGGSTYYADSVKGRFTISRDNAKNTVYLQMNSLKPEVTAVYYCAKRSYTGYEYWGQGTQVTVSS”: the “polyreactivity (PSR sort gate)” value is given as “low polyreactivity”.

Take “QVQLVESGGGLVQAGGSLRLSCAASGYIFLSYAMGWYIQAPGKERELVAAISRGGRTYYADSVKGRFTISRDNAKNTVYLQMNSLKPEDTAVYYCNAVSTPGKYGYWGQGTQVTVSS”: the “polyreactivity (PSR sort gate)” value is “high polyreactivity”.

As to “QVQLVESGGGLVQAGGSLRLSCAASGYIFNKYVMGWYRQAPGKERELVAAISASGGSTYYADSVKGRFTISRDNAKNTVYLQMNSLKPEDTAVYYCAATLYRRMDYWGQGTQVTVSS”, the “polyreactivity (PSR sort gate)” value is listed as “high polyreactivity”.

As for “QVQLVESGGGLVQAGGSLRLSCAASGYIFNKYVMGWYRQAPGKERELVAAISASGGSTYYADSVKGRFTISRDNAKNTVYLQMNSLKPEDTSVYYCAATLYRRMDYWGQGTQVTVSS”, the “polyreactivity (PSR sort gate)” value is on record as “high polyreactivity”.

Regarding “QVQLVESGGGLVQAGGSLRLSCAASGYIFPFNAMGWYRQAPGKERELVAAITNGGRTYYADSVKGRFTISRDNAKNTVYLQMNSLKPEDTAVYYCAAGSKSDMDWGQGTQVTVSS”, the “polyreactivity (PSR sort gate)” value is reported as “low polyreactivity”.

For “QVQLVESGGGLVQAGGSLRLSCAASGYIFQDYAMGWYRQAPAKERELVARISAGGGRTYYADSVKGRFTISRENAMNTVYLQMNSLKPEDTAVYYCAAPLSYSWVYIVRYGYDYWGQGTQVTVSS”, the “polyreactivity (PSR sort gate)” value was “low polyreactivity”.

For “QVQLVESGGGLVQAGGSLRLSCAASGYIFQPYAMGWYRQAPGKERELVAAISWRGGSTYYADSVKGRFTISRDNAKNTVYLQMNSLKPEDTAVYYCAVDAWDTTHVYEQGAERDSWGQGTQVTVSS”, the “polyreactivity (PSR sort gate)” value was “low polyreactivity”.

On to “QVQLVESGGGLVQAGGSLRLSCAASGYIFRVYAMGWYRQAPGKERELVAAISGSGGRTYYADSVKGRFTISRDNAKNTVSLQMNSLKPEDTAVYYCAAYRVSDYDYWGQGTQVTVSS”, for which the “polyreactivity (PSR sort gate)” value is given as “high polyreactivity”.

Take “QVQLVESGGGLVQAGGSLRLSCAASGYIFRYYAMGWYRQAPGKERELVAAISRSGGNTYYADSVKGRFTISRDNAMITVYLQMNSLKPEDTAVYYCAVVLSTYSYADYDYWGQGTQVTVSS”: the “polyreactivity (PSR sort gate)” value is “high polyreactivity”.

On to “QVQLVESGGGLVQAGGSLRLSCAASGYIFSINAMGWYRQAPGKERELVAAITSSGGSTYYADSVKGRFTISRDNAKNTVYLQMNSLKPEDTAVYYCNAYVRRTRDYDYWGQGTQVTVSS”, for which the “polyreactivity (PSR sort gate)” value was “high polyreactivity”.

With “QVQLVESGGGLVQAGGSLRLSCAASGYIFSSYAMGWYRQAPGKERELVAAISWTGGTYYADSVKGRFTISRDNAKNTVYLQMNSLKPEDTAVYYCAVRYKRKGSGYRTNAYDYWGQGTQVTVSS”, the “polyreactivity (PSR sort gate)” value was “high polyreactivity”.

In the case of “QVQLVESGGGLVQAGGSLRLSCAASGYIFSYNAMGWYRQAPGKERELVAAITASGGGTYYADSVKGRFTISRDNAKNTVYLQMNSLKPDDTAVYYCAATPYSTQGLRPKFDYWGQGTQVTVSS”, the “polyreactivity (PSR sort gate)” value is reported as “low polyreactivity”.

For “QVQLVESGGGLVQAGGSLRLSCAASGYIFSYYAMGWYRQAPGKEREFVAAIRWRGGSTYYADSVKGRFTISRDNAKKTVYLQMNSLKPEDTAVYYCAAGPGTSYYWGQGTQVTVSS”, the “polyreactivity (PSR sort gate)” value is reported as “high polyreactivity”.

“QVQLVESGGGLVQAGGSLRLSCAASGYIFSYYAMGWYRQAPGKEREFVAAIRWRGGSTYYADSVKGRFTISRDNAKNTVYLQMNSLKPEDTAVYYCAAGPGTSYYWGQGTQVTVSS”: the “polyreactivity (PSR sort gate)” value is listed as “high polyreactivity”.

Consider “QVQLVESGGGLVQAGGSLRLSCAASGYIFTDYDMGWYRPAPGKEREFVAAISSSGGSTYYADSVKGRFTISRDNAKNTVYLQMNRLKPEDTAVYYCAARRRYGRYRGAYDYWGQGTRVTVSS”, for which the “polyreactivity (PSR sort gate)” value is listed as “high polyreactivity”.

Take “QVQLVESGGGLVQAGGSLRLSCAASGYIFTIYAMGWYRQAPGKERELVAAITWSGATTYYADSVKGRFTISRDNAKNTVYLQMNSLKPEDTAVYYCNADYWHYYEDYDSWGQGTQVTVSS”: the “polyreactivity (PSR sort gate)” value is “low polyreactivity”.

On to “QVQLVESGGGLVQAGGSLRLSCAASGYIFTVYAMGWYRQAPGKERELVAAINWSDGSTYYADSVKGRFTISRDNAKNTVYLQMNSLKPEDTAVYYCAAESRYQRYDYWGQGTQVTVSS”, for which the “polyreactivity (PSR sort gate)” value is “high polyreactivity”.

Regarding “QVQLVESGGGLVQAGGSLRLSCAASGYIFTYNAMGWYRQAPGKERELVAAISYSGGSTYYADSVKGRFTISRDNAKNTVYLQINSLNPEDTAVYYCNAVWRHTYGNYFWGQGTQVTVSS”, the “polyreactivity (PSR sort gate)” value is “high polyreactivity”.

Take “QVQLVESGGGLVQAGGSLRLSCAASGYIFTYTMGWYRQAPGKERELVAAISKSGGSTYYADSVKGRFTLSRDNAKNTVYLQMNSLKPEDTAVYYCARRGRYYLYTDDYDYWGQGTQVTVSS”: the “polyreactivity (PSR sort gate)” value is given as “high polyreactivity”.

Consider “QVQLVESGGGLVQAGGSLRLSCAASGYIFVYNAMGWYRQAPGKERELVAAISTTGGRTYYADSVKGRFTISRDNAKNTVYLLMNSLKPEDTAVYYCAARAYYAWTLFGYWGQGTQVTVSS”, for which the “polyreactivity (PSR sort gate)” value is “high polyreactivity”.

In the case of “QVQLVESGGGLVQAGGSLRLSCAASGYIFWKNAMGWYRQAPGKERELVAGITIRGGRTYYADSVKGRFTISRDNAKNTVYLQMNSLKPEDTAVYYCNALYDYYDPYGSWGQGTQVTVSS”, the “polyreactivity (PSR sort gate)” value is “high polyreactivity”.

For the sequence “QVQLVESGGGLVQAGGSLRLSCAASGYIFWLNALGWYRQAPGKERELVAAIRSSGGSTYYADSVKGRFTISRDNAKNTVYLQMNSLKPEDTAVYDCARRGYNWYTHFGYDYWGQGTQVTVSS”, the “polyreactivity (PSR sort gate)” value is listed as “low polyreactivity”.

Take “QVQLVESGGGLVQAGGSLRLSCAASGYIFWYNAMGWYRQAPGKERELVAAISRSGGRTYYADSVKGRCTISRDNAKNTVYLQMNSLKPDDTAVYYCAAGSSHHYVYEGGYWGQGTQVTVSS”: the “polyreactivity (PSR sort gate)” value is given as “low polyreactivity”.
